Each block holds one molecule with its values, some of them ahead of it.
Experiments:
[1] = target: TFIIB (UniProt Q00403); test: FLAG co-immunoprecipitation, TFIIB immunoblot; details: reference: FLAG-WT-HSF1
[2] = target: T1, FLAG-tagged WT-HSF1 (human), Q00613; test: cross-linking + SEC; HEK-293 cells co-expressing AKT1 and WT- or T142A-HSF1, fixed with EGS; RIPA lysate on Superdex 200 Increase 10/300 GL in 50 mM Tris pH 8.0, 150 mM NaCl, 1% NP-40, 4 °C; fractions immunoblotted for HSF1; details: remark: other sources report otherwise
T1 chain: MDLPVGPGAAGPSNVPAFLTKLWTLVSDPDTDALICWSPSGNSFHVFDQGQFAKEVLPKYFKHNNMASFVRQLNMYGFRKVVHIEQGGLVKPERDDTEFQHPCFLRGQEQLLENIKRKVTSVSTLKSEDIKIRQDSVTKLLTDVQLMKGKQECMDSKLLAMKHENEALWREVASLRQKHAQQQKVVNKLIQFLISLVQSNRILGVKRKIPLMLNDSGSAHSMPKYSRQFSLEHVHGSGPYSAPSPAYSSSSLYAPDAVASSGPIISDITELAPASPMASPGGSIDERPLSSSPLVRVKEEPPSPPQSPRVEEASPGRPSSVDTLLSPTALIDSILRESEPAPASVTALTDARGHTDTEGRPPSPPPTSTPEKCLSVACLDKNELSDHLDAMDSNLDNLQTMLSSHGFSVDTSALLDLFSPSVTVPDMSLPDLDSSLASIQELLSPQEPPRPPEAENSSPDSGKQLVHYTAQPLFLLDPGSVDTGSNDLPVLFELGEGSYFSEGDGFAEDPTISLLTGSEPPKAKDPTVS

[3] = target: T1, FLAG-tagged WT-HSF1 (human), Q00613; test: cross-linking; HEK-293 cells transfected for 48 h with WT- or T142A-HSF1 with or without AKT1 or CK2; cells fixed with 1 mM EGS for 30 min at RT, quenched with 10 mM Tris pH 7.5, RIPA lysate, SDS/PAGE, immunoblot for HSF1 trimers; details: remark: other sources report otherwise

- binding against the reference ([1]; sites T527): lost
Molecule: HSF1 (from UniProt Q00613) FLAG-T527A-HSF1

- binding against the reference ([1]; sites S326): weaker
Molecule: HSF1 (from UniProt Q00613) FLAG-S326A-HSF1

- stoichiometry N [2]: 3
- stoichiometry N [3]: 3
B1: FLAG-tagged WT-HSF1, Q00613 1-529 (natural protein)
chain: MDLPVGPGAAGPSNVPAFLTKLWTLVSDPDTDALICWSPSGNSFHVFDQGQFAKEVLPKYFKHNNMASFVRQLNMYGFRKVVHIEQGGLVKPERDDTEFQHPCFLRGQEQLLENIKRKVTSVSTLKSEDIKIRQDSVTKLLTDVQLMKGKQECMDSKLLAMKHENEALWREVASLRQKHAQQQKVVNKLIQFLISLVQSNRILGVKRKIPLMLNDSGSAHSMPKYSRQFSLEHVHGSGPYSAPSPAYSSSSLYAPDAVASSGPIISDITELAPASPMASPGGSIDERPLSSSPLVRVKEEPPSPPQSPRVEEASPGRPSSVDTLLSPTALIDSILRESEPAPASVTALTDARGHTDTEGRPPSPPPTSTPEKCLSVACLDKNELSDHLDAMDSNLDNLQTMLSSHGFSVDTSALLDLFSPSVTVPDMSLPDLDSSLASIQELLSPQEPPRPPEAENSSPDSGKQLVHYTAQPLFLLDPGSVDTGSNDLPVLFELGEGSYFSEGDGFAEDPTISLLTGSEPPKAKDPTVS
